This passage reports Kobs (observed association constant) results from patent publication US20130330358.

The subject of data set [1] is T1, vIRF4^202-216 peptide (vif1).
T1 sequence: SVWIPVNEGASTSGM
The data set can be described thus: competitive ITC: vIRF4^202-216 titrated into TRAF pre-titrated with p53^350-364 (competitor).

Data set [2] has the same test system. Kind of data set: competitive ITC: vIRF4^202-216 titrated into TRAF pre-titrated with p53^355-369 (competitor).
Data set [3] shares this test system. The data set can be described thus: competitive ITC: vIRF4^202-216 titrated into TRAF pre-titrated with MDM2^137-152 (competitor).

HAUSP TRAF domain (HAUSP^62-205), sequence (Q93009 62-205): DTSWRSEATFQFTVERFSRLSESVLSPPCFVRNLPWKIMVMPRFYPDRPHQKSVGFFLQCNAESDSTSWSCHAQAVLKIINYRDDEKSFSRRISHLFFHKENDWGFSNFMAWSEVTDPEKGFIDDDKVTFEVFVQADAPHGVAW

Consider HAUSP TRAF domain (HAUSP^62-205), for which the Kobs (observed association constant) is 4.42e+07 M⁻¹ in data set [1], 3.58e+07 M⁻¹ in data set [2] and 1.09e+07 M⁻¹ in data set [3].
